Assay results: US20190389910A1 (ORUM THERAPEUTICS, published 2019)

biological target: human recombinant EpCAM antigen (extracellular domain, residues 1 to 265, fused with 6×His tag and Avi-tag) (human) (UniProt P16422); assay: SPR (Biacore 2000), EpCAM on CM5 chip (about 367 RU), antibody 6.25-100 nM as analyte
Sequence (P16422 24-265 limits assumed, form in doubt): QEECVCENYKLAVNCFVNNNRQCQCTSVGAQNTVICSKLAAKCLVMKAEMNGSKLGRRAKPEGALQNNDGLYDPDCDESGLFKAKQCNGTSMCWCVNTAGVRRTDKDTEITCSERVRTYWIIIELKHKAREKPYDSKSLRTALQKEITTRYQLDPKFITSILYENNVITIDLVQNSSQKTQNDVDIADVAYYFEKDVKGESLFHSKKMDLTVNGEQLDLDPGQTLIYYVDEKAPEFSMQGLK

Row | Kd | koff | kon | Binder
1 | 12.4 nM | 0.00905 s⁻¹ | 728000 M⁻¹ s⁻¹ | ep4-Ras03 (antibody, part only; not given: RT22 heavy chain, light constant, V domains shown, not shown: another chain or arm of the molecule; a dimerising Fc or GST, chain 1: disulfide bond Cys5-Cys10 closes the cyclic peptide) VL: EHLHCLGSLCWSMGSSSNDIQMTQSPSSLSASVGDRVTITCKSSQSLLNSRDGKNYLAWYQQKPGKAPKLLIYWASTRESGVPSRFSGSGSGTDFTLTISSLQPEDFATYFCQQYWYWMYTFGQGTKVEIK
2 | 1.86 nM |  | 3.02e+06 M⁻¹ s⁻¹ | ep6-Ras03 (antibody, part only; not given: RT22 heavy chain, light constant, V domains shown, not shown: another chain or arm of the molecule; a dimerising Fc or GST, chain 1: disulfide bond Cys5-Cys10 closes the Ep6 cyclic peptide) VL: NNLRCIGNICWSMGSSSNDIQMTQSPSSLSASVGDRVTITCKSSQSLLNSRDGKNYLAWYQQKPGKAPKLLIYWASTRESGVPSRFSGSGSGTDFTLTISSLQPEDFATYFCQQYWYWMYTFGQGTKVEIK
3 | 4.35 nM |  | 1.36e+06 M⁻¹ s⁻¹ | ep7-Ras03 (antibody, part only; not given: RT22 heavy chain, light constant, V domains shown, not shown: another chain or arm of the molecule; a dimerising Fc or GST, chain 1: disulfide bond Cys5-Cys10 closes the Ep7 cyclic peptide) VL: DNLRCIGNICWSMGSSSNDIQMTQSPSSLSASVGDRVTITCKSSQSLLNSRDGKNYLAWYQQKPGKAPKLLIYWASTRESGVPSRFSGSGSGTDFTLTISSLQPEDFATYFCQQYWYWMYTFGQGTKVEIK

biological target: human recombinant EpCAM antigen (extracellular domain, residues 1 to 265, fused with 6×His tag and Avi-tag) (human) (UniProt P16422); assay: SPR (Biacore 2000), EpCAM on CM5 chip (about 211 RU), antibody 6.25-100 nM as analyte

Row | Kd | koff | kon | Binder
4 | 3.04 nM | 0.00224 s⁻¹ | 737000 M⁻¹ s⁻¹ | epRas03 (4-8) (antibody, part only; not given: RT22 heavy chain, light constant, V domains shown, not shown: another chain or arm of the molecule; a dimerising Fc or GST, chain 1: disulfide bond Cys5-Cys10 closes the cyclic peptide) VL: RNLLCIGNLCWPMGSSSNDIQMTQSPSSLSASVGDRVTITCKSSQSLLNSRDGKNYLAWYQQKPGKAPKLLIYWASTRESGVPSRFSGSGSGTDFTLTISSLQPEDFATYFCQQYWYWMYTFGQGTKVEIK
5 | 0.185 nM | 0.00105 s⁻¹ | 5.69e+06 M⁻¹ s⁻¹ | epRas03 (4-13) (antibody, part only; not given: RT22 heavy chain, light constant, V domains shown, not shown: another chain or arm of the molecule; a dimerising Fc or GST, chain 1: disulfide bond Cys5-Cys10 closes the cyclic peptide) VL: RNLQCIRNICWSMGSSSNDIQMTQSPSSLSASVGDRVTITCKSSQSLLNSRDGKNYLAWYQQKPGKAPKLLIYWASTRESGVPSRFSGSGSGTDFTLTISSLQPEDFATYFCQQYWYWMYTFGQGTKVEIK
6 | 9.94 nM | 0.00421 s⁻¹ | 424000 M⁻¹ s⁻¹ | epRas03 (4-27) (antibody, part only; not given: RT22 heavy chain, light constant, V domains shown, not shown: another chain or arm of the molecule; a dimerising Fc or GST, chain 1: disulfide bond Cys5-Cys10 closes the cyclic peptide) VL: RHLWCLGRLCWPMGSSSNDIQMTQSPSSLSASVGDRVTITCKSSQSLLNSRDGKNYLAWYQQKPGKAPKLLIYWASTRESGVPSRFSGSGSGTDFTLTISSLQPEDFATYFCQQYWYWMYTFGQGTKVEIK
7 | 183 nM | 0.00205 s⁻¹ | 11200 M⁻¹ s⁻¹ | epRas03 (4-14) (antibody, part only; not given: RT22 heavy chain, light constant, V domains shown, not shown: another chain or arm of the molecule; a dimerising Fc or GST, chain 1: disulfide bond Cys5-Cys10 closes the cyclic peptide) VL: RNLHCIGNLCWPMGSSSNDIQMTQSPSSLSASVGDRVTITCKSSQSLLNSRDGKNYLAWYQQKPGKAPKLLIYWASTRESGVPSRFSGSGSGTDFTLTISSLQPEDFATYFCQQYWYWMYTFGQGTKVEIK
8 | 17.7 nM | 0.00117 s⁻¹ | 66400 M⁻¹ s⁻¹ | epRas03 (4-12) (antibody, part only; not given: RT22 heavy chain, light constant, V domains shown, not shown: another chain or arm of the molecule; a dimerising Fc or GST, chain 1: disulfide bond Cys5-Cys10 closes the cyclic peptide) VL: RNLLCLRRICWPMGSSSNDIQMTQSPSSLSASVGDRVTITCKSSQSLLNSRDGKNYLAWYQQKPGKAPKLLIYWASTRESGVPSRFSGSGSGTDFTLTISSLQPEDFATYFCQQYWYWMYTFGQGTKVEIK
9 | 0.313 nM | 0.00168 s⁻¹ | 5.38e+06 M⁻¹ s⁻¹ | epRas03 (4-19) (antibody, part only; not given: RT22 heavy chain, light constant, V domains shown, not shown: another chain or arm of the molecule; a dimerising Fc or GST, chain 1: disulfide bond Cys5-Cys10 closes the cyclic peptide) VL: RNLRCIGNICWSMGSSSNDIQMTQSPSSLSASVGDRVTITCKSSQSLLNSRDGKNYLAWYQQKPGKAPKLLIYWASTRESGVPSRFSGSGSGTDFTLTISSLQPEDFATYFCQQYWYWMYTFGQGTKVEIK

biological target: human recombinant integrin αvβ5 (αv extracellular domain-acidic leucine zipper-His×6 with β5 extracellular domain-basic leucine zipper) (human) (UniProt P06756); assay: BLI (Octet), antibody captured on anti-human IgG Fc (AHC) biosensor, integrin αvβ5 3.1-100 nM as analyte, divalent cations
Sequence (P06756 other isoform, or with tags, fused parts or gaps, chain 1 of 2): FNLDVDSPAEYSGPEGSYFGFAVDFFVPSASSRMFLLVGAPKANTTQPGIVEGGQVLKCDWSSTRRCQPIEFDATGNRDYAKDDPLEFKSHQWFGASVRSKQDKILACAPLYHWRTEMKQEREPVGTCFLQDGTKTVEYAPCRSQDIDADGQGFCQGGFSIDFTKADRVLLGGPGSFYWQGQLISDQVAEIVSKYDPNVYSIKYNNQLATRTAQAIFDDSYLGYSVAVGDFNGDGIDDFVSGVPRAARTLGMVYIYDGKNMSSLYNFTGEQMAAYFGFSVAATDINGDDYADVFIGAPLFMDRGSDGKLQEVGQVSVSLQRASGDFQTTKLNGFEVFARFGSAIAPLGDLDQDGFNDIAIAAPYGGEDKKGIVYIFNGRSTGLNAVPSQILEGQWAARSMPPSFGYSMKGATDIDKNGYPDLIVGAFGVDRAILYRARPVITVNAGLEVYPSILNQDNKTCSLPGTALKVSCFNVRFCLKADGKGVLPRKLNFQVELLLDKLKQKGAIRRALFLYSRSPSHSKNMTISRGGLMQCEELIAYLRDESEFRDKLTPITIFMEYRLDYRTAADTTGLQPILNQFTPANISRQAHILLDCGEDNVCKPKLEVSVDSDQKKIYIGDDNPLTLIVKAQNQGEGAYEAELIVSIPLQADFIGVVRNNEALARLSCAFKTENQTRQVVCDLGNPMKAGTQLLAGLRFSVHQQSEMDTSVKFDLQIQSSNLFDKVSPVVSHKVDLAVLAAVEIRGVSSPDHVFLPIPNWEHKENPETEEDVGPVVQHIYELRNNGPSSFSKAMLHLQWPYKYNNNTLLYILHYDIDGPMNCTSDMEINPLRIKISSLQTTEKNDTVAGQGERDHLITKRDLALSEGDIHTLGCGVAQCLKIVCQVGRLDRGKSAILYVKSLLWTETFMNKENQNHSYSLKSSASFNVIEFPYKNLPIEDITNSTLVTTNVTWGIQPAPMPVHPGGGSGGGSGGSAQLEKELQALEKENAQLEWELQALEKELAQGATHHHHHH
Sequence (chain, as listed by the source, chain 2 of 2): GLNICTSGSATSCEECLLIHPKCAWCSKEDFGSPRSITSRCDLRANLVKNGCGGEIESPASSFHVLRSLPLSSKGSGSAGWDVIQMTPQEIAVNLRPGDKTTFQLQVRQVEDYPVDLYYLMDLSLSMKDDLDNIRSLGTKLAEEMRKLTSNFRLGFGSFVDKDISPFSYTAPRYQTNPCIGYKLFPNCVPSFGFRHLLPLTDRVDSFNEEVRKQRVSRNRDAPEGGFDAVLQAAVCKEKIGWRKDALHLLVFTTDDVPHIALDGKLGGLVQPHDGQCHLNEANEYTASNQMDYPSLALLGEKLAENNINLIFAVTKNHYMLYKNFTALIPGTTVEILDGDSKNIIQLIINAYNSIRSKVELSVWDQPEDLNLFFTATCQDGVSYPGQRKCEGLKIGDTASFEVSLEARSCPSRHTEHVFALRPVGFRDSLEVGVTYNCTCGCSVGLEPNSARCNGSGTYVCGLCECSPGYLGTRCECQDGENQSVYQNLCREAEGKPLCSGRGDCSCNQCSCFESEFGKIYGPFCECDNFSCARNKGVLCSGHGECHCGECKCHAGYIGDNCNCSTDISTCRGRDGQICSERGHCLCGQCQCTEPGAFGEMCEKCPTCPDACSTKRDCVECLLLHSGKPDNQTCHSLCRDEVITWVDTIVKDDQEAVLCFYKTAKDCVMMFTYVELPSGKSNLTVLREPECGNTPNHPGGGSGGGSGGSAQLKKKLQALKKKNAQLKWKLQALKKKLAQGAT

Row | Kd | koff | kon | Binder
10 | 4.88 nM | 0.000163 s⁻¹ | 33300 M⁻¹ s⁻¹ | 5#3-Ras03 (antibody, part only; not given: RT22 heavy chain, constant regions, V domains shown, not shown: another chain or arm of the molecule; a dimerising Fc or GST; large carriers; small tags and cut ends, chain 1: disulfide bond Cys6-Cys16 closes the 5#3 cyclic peptide) VL: SRDETCTPRGDTFAICMGSSSNDIQMTQSPSSLSASVGDRVTITCKSSQSLLNSRDGKNYLAWYQQKPGKAPKLLIYWASTRESGVPSRFSGSGSGTDFTLTISSLQPEDFATYFCQQYWYWMYTFGQGTKVEIK
11 | 7.01 nM | 0.000158 s⁻¹ | 22500 M⁻¹ s⁻¹ | 5#4-Ras03 (antibody, part only; not given: RT22 heavy chain, constant regions, V domains shown, not shown: another chain or arm of the molecule; a dimerising Fc or GST; large carriers; small tags and cut ends, chain 1: disulfide bond Cys6-Cys17 closes the 5#4 cyclic peptide) VL: EHATNCTTRGDTFVVLCGLGMGSSSNDIQMTQSPSSLSASVGDRVTITCKSSQSLLNSRDGKNYLAWYQQKPGKAPKLLIYWASTRESGVPSRFSGSGSGTDFTLTISSLQPEDFATYFCQQYWYWMYTFGQGTKVEIK
12 | 2.63 nM | 0.00012 s⁻¹ | 45500 M⁻¹ s⁻¹ | 5#2-Ras03 (antibody, part only; not given: RT22 heavy chain, constant regions, V domains shown, not shown: another chain or arm of the molecule; a dimerising Fc or GST; large carriers; small tags and cut ends, chain 1: disulfide bond Cys6-Cys14 closes the 5#2 cyclic peptide) VL: ASYNDCQSRGDTFCVADMGSSSNDIQMTQSPSSLSASVGDRVTITCKSSQSLLNSRDGKNYLAWYQQKPGKAPKLLIYWASTRESGVPSRFSGSGSGTDFTLTISSLQPEDFATYFCQQYWYWMYTFGQGTKVEIK
